Assay results as given in paper PMC6602525 (Cell, 2019).

Molecular target: PfRH5FL (full-length PfRH5 protein comprising amino acids E26–Q526) (P. falciparum (3D7 clone), UniProt Q8IFM5 26-526, T40A | T216A | T286A | T299A)
Assay: SPR
Details: both partners purified

B1: PfP113Nt (domain or fragment)
chain: YVHNDVIKFGEENSLKCSQGNLYVLHCEVQCLNGNNEIIHKRCNDDIEKKCNGNNKCIYFFEYELRKKTQSFRNKNSIEISECVESEQNEVKTSTTCLLSNSFILDEAFIQYFFFIKNKNEEPVICKDGNINIKSALLHSPFCEIKLKDISEYIRKKCDNNKECLIDPLDVQKNLLNEEDPCYINNSYVSVNVVCNK
binding result: binds
